Columns and labels:
MKN45 cells = experiment: FACS binding to cell line MKN45, which highly expresses c-Met; parameters: species or system human; details: flow cytometry, read-out: MKN45/FCAS Binding activity
Procedure: A FACS method was used to detect the binding activity of c-Met humanized antibodies with the cell line MKN45, which highly expresses c-Met.
MKN45 cells (JCRB, Cat No.: JCRB0254) were resuspended in RPMI1640 medium (GIBCO, Cat No.: 11835-030) which contains 10% (v/v) fetal calf serum (FBS GIBCO, Cat No.: 10099-141) and Penicillin/Streptomycin (GIBCO, Cat No.: 15070-063) to reach 10,000,000 cells/mL. 2 mL of resuspended MKN45 cells was added to 96-well microtiter plate (Corning, Cat No.: 3799) at 150,000 cells/well, and 8 concentrations of c-Met antibody (5-fold gradient diluted, starting from 20 μg/mL) were added to the corresponding wells, and the final volume was 100 μL. The plate was incubated for 1 hour at 4° C. FACS buffer (PBS comprising 2.5% (v/v) FBS (Hyclone, Cat: SH30256.01B)) was added. The plate was centrifuged under 4° C. at 1300 rmp for 4 minutes, and the supernatant was discarded. This procedure was repeated three times. 100 μL of secondary antibodies (Fluorescence labeled goat-anti-mouse secondary antibodies with 1:200 dilution, Biolegend, Cat No. 405307; Fluorescence labeled anti-human secondary antibody with 1:30 dilution, Biolegend, Cat No. 409304) were added to each well, and the plate was incubated for 1 hour at 4° C. […] FACS buffer was added to resuspend the cells, and the prepared samples were detected by flow cytometry (BD FACS Array).

c-Met antigen Sema-His = target: T1, c-Met antigen Sema-His (Homo sapiens, UniProt P08581); experiment: SPR (BIACore) affinity to c-Met antigen; type: binding; details: 1:1 Langmuir model
T1 construct: Flag (C); His tag (6xHis) (C); made in house; host or cells: 293F cells (Invitrogen, Cat # R790-07); vector pEE6.4; c-Met gene template origene RC217003
T1 sequence (P08581 with tags, fused parts or gaps limits assumed): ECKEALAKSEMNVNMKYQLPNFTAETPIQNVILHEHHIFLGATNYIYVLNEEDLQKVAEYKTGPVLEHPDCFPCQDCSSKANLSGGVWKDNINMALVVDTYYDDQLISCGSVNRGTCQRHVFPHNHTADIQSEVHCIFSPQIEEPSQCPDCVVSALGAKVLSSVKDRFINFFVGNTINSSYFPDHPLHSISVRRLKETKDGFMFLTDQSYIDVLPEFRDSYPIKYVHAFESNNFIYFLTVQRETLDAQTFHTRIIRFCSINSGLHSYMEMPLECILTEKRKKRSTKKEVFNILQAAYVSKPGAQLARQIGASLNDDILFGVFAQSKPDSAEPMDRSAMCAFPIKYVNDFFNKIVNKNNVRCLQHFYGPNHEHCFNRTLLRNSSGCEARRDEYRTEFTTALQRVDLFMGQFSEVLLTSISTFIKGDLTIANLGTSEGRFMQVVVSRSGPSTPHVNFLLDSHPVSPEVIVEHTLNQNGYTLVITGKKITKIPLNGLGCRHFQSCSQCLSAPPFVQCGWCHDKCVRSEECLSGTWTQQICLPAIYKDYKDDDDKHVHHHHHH
Procedure: The affinity of c-Met antibody to c-Met antigen Sema-His was detected by surface plasmon resonance (SPR) in the invention.
Anti-mouse IgG (GE Life Sciences catalog # BR-1008-38) or anti-human IgG (GE Life Sciences catalog # BR-1008-39) antibodies were respectively diluted to 30 μg/mL and 50 μg/mL by sodium acetate solution pH 5.0 (GE Healthcare, Cat # BR-1003-51). An amino coupling kit (GE Life Sciences, Cat # BR100050) […] the test channels and control channels on a CM5 chip (GE Life Sciences catalog # BR-1000-12), and the coupling level was set at 15000 RU. The c-Met antibody was diluted with Running buffer PBS (Hyclone, Cat # SH30256.01B)+0.05% P20 (GE Life Sciences, Cat # BR-1000-54) to 1.5 μg/mL. Antigen Sema-His was diluted to 200 nM with running buffer, and then diluted at a 1:2 dilution with the same buffer until 0.78 nM was reached. The diluted antibody passed through the test channel for 1 minute at a speed of 30 μL/min, and the antigen passed through the test channels and control channels for 3 minutes at the same speed. 10 minutes after dissociation, the flow speed was adjusted to 10 μL/min, and regeneration buffer was passed through test channels and control channels for 3 minutes. Data was fitted by BiaEvaluation 4.1 after double deduction, and the fitting model was a 1:1 Langmuir model.

[1] = Biophysical stability: deamination by LC-MS; type: physicochemical; details: 4° C., 3.5 months
Procedure: To evaluate the biophysical stability of the anti c-Met antibodies of the invention, such as the presence of glycosylation and deamination sites and stability, LC-MS analysis was used.
The molecular weight of the heavy and light chains was directly detected by LC-MS to analyze glycosylation. Deamination was analyzed by LC-MS at 4° C. for long time (at least 3 months), or at 40° C. for 21 days under an accelerated condition. Samples treated with different conditions were diluted to 2 mg/mL with pH 7.2 Tris-HCl; final concentrations of 10 mM of TCEP and 6M of urea (AMRESCO, Cat #0378)3 were added, then the samples were incubated for 20 minutes at 37° C. IAA (Sigma-Aldrich, Cat # I1149) with a final concentration of 20 mM was added and was incubated for 15 minutes in darkness to protect the sulfhydryl group. The pH of the sample was adjusted by dilution with Tris-HCl, pH 7.2, and protease (Sigma-Aldrich, Cat # T6567) was added at a ratio by weight of 10:1 (protein: enzyme). The samples were incubated at 37° C. for 25 minutes, and then formic acid with a final concentration of 0.1% (Fluca, Cat #94318) was added to terminate the reactions. Samples were centrifuged and analyzed by LC-MS.
BiopharmaLynx was used to analyze the presence of deamination. […] Peak area was obtained by integration, and the percentages of deamination and oxidation product were calculated.

B1: Ab-9 (antibody)
heavy: QVTLKESGPVLVKPTETLTLTCTVSGFSLPNYGVHWVRQPPGKALEWLAVIWSGGSTNYAAAFVSRLRISKDTSKSQVVFTMNNMDPVDTATYYCARNHDNPYNYAMDYWGQGTTVTVSSASTKGPSVFPLAPCSRSTSESTAALGCLVKDYFPEPVTVSWNSGALTSGVHTFPAVLQSSGLYSLSSVVTVPSSNFGTQTYTCNVDHKPSNTKVDKTVERKCCVECPPCPAPPVAGPSVFLFPPKPKDTLMISRTPEVTCVVVDVSHEDPEVQFNWYVDGVEVHNAKTKPREEQFNSTFRVVSVLTVVHQDWLNGKEYKCKVSNKGLPAPIEKTISKTKGQPREPQVYTLPPSREEMTKNQVSLTCLVKGFYPSDIAVEWESNGQPENNYKTTPPMLDSDGSFFLYSKLTVDKSRWQQGNVFSCSVMHEALHNHYTQKSLSLSPGK
light: DIVLTQSPASLAVSPGQRATITCRANKSVSTSTYNYLHWYQQKPGQPPKLLIYLASNLASGVPARFSGSGSGTDFTLTINPVEANDTANYYCQHSRDLPPTFGQGTKLEIKRTVAAPSVFIFPPSDEQLKSGTASVVCLLNNFYPREAKVQWKVDNALQSGNSQESVTEQDSKDSTYSLSSTLTLSKADYEKHKVYACEVTHQGLSSPVTKSFNRGEC
With B1 the EC50 (MKN45 cells) was 1.6 nM, the Kd (c-Met antigen Sema-His) was 4 nM and the “Analysis of deamination: percentage of deaminated molecules” value [1] was 0.66%.

Reference: patent US20200054764A1, “MEDICAL USE OF ANTI-C MET ANTIBODY-CYTOTOXIC DRUG CONJUGATE” (priority 2016, published 2020)
